In US20260098070A1 (DEM BIOPHARMA, published 2026):
Each block holds one molecule with its values, some of them ahead of it. No end group written: not given here. *: point of attachment. Biotin = O=C1N[C@H]2[C@H](CS[C@H]2CCCCC(=O)*)N1

How the values were obtained:
[1] = molecular target: CLEC10A expressed on transfected HEK293 cells (human) (UniProt Q8IUN9); assay: flow cytometry, live HEK293 transfectants, 5 µg/mL probe in PBS+Ca2+/Mg2+, AF647 anti-human Fc
[2] = molecular target: T1, CD177 ECD-Fc (CD177 extracellular domain with Fc tag) (UniProt Q8N6Q3 22-408, limits assumed); assay: ELISA, immobilized CD177 ECD-Fc, biotinylated peptide pre-incubated with HRP-streptavidin
T1 construct: extracellular domain; also called CD177-Fc; recombinant CD177 ECD; not shown: Fc tag
T1 sequence (looked up): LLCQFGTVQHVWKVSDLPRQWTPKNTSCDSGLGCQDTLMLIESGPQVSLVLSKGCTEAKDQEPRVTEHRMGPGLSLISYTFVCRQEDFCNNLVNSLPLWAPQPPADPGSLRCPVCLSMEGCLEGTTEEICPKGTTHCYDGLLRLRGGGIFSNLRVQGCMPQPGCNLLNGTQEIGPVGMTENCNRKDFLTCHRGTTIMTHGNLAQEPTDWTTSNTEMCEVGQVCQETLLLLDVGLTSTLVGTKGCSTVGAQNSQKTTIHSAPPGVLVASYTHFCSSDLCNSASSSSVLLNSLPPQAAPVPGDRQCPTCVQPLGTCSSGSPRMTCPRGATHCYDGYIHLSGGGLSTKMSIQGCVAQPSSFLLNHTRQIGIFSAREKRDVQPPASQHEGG
Method: To evaluate the binding of aglycosylated hSMAGP ECD to CD177, an hSMAGP ECD peptide (H2N-[…]-Biotin-amide (SEQ ID NO: 62)) was chemically synthesized. An extra lysine residue was added to the C terminus to facilitate biotinylation. Another peptide, with a scrambled hSMAGP ECD sequence (H2N-[…]-Biotin-amide (SEQ ID NO: 63)), was synthesized as a control. Peptide binding to the recombinant CD177 ECD-Fc (CD177 extracellular domain with Fc tag) or hIgG1-Fc (IgG1 domain with Fc tag) negative control was evaluated in an enzyme-linked immunosorbent assay (ELISA). CD177 ECD-Fc and hIgG1-Fc were immobilized to separate Corning 96-well Clear Flat Bottom Polystyrene High Bind Microplates at 4° C. overnight in PBS. Plates were blocked using 5% skim milk. Biotinylated hSMAGP ECD peptide or the scrambled control (10 μg/ml) was pre-incubated with HRP-conjugated streptavidin (5 μg/ml) and added to the plates. In a control assay, an anti-CD177 antibody (Biolegend Cat #315802; 10 μg/ml) was premixed with the biotinylated SMAGP ECD peptide. The signal was developed using TMB substrate. The assay was performed in triplicate.

CLEC10A expressed on transfected HEK293 cells (human), sequence (Q8IUN9 whole entry, the tested form may be a part): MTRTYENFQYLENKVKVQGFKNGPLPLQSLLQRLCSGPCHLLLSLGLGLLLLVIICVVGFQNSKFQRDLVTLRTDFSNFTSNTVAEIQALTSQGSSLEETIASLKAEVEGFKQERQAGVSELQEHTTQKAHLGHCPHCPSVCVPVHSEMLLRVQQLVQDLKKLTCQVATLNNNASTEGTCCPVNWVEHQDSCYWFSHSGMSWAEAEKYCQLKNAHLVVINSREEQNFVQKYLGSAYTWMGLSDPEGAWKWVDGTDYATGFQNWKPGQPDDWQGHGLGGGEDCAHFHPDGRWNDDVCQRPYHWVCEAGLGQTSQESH

- fold change in median fluorescence intensity over control cells [1]: 3.3 fold
Molecule: hSMAGP ECD-hIgG1 Fc (Fc fusion)

- binding result [2]: no binding (tested: 10 µg/ml)
B1: aglycosylated scrambled hSMAGP ECD peptide (peptide)
peptide: TRTTLIMESTTPALMLLEPLGSPQDAPTSTEEAPSLK(Biotin)-NH2
modifications: N-terminus assumed
SMILES: CC[C@H](C)[C@H](NC(=O)[C@H](CC(C)C)NC(=O)[C@@H](NC(=O)[C@@H](NC(=O)[C@H](CCCNC(=N)N)NC(=O)[C@@H](N)[C@@H](C)O)[C@@H](C)O)[C@@H](C)O)C(=O)N[C@@H](CCSC)C(=O)N[C@@H](CCC(=O)O)C(=O)N[C@@H](CO)C(=O)N[C@H](C(=O)N[C@H](C(=O)N1CCC[C@H]1C(=O)N[C@@H](C)C(=O)N[C@@H](CC(C)C)C(=O)N[C@@H](CCSC)C(=O)N[C@@H](CC(C)C)C(=O)N[C@@H](CC(C)C)C(=O)N[C@@H](CCC(=O)O)C(=O)N1CCC[C@H]1C(=O)N[C@@H](CC(C)C)C(=O)NCC(=O)N[C@@H](CO)C(=O)N1CCC[C@H]1C(=O)N[C@@H](CCC(N)=O)C(=O)N[C@@H](CC(=O)O)C(=O)N[C@@H](C)C(=O)N1CCC[C@H]1C(=O)N[C@H](C(=O)N[C@@H](CO)C(=O)N[C@H](C(=O)N[C@@H](CCC(=O)O)C(=O)N[C@@H](CCC(=O)O)C(=O)N[C@@H](C)C(=O)N1CCC[C@H]1C(=O)N[C@@H](CO)C(=O)N[C@@H](CC(C)C)C(=O)N[C@@H](CCCCNC(=O)CCCC[C@@H]1SC[C@@H]2NC(=O)N[C@@H]21)C(N)=O)[C@@H](C)O)[C@@H](C)O)[C@@H](C)O)[C@@H](C)O
notes: Pre-incubated with HRP-conjugated streptavidin before addition to the plates; also called scrambled control
